Measurements: article PMC6737250, “A new perspective on membrane-embedded Bax oligomers using DEER and bioresistant orthogonal spin labels” (Scientific Reports, 2019)

Tests used:
[1] = target: Bax_(C87(C62S, C126S)) labeled with maleimide gem-diethyl nitroxide (MAG) (human) (UniProt Q07812); test: DEER (double electron-electron resonance, EPR); inactive Bax in buffer (aqueous solution) with 50% v/v glycerol-d8, flash frozen; Q-band 4-pulse DEER, NO-NO at 50 K, Gd-Gd at 10 K; one labeled variant per sample
[2] = target: T1, Bax wild type labeled with iodacetamide gem-diethyl nitroxide (IAG) (human, UniProt Q07812 1-192, IAG (iodacetamide gem-diethyl nitroxide) spin label on the native cysteines 62 and 126); test: DEER (double electron-electron resonance, EPR); two Bax variants mixed before oligomerization (3-fold excess of unlabeled BaxWT or of Bax_(C87Gd) over nitroxide-labeled BaxWT), activated with cBid and MOM-like liposomes, pellet fraction; NO-NO (50 K), NO-Gd (10 K) and Gd-Gd (10 K) DEER channels on the same sample; conditions: both partners purified
T1 construct: Bax, human, full length; two native cysteines at positions 62 and 126; also called Bax_(WTIAG); source: E. coli (BL21/RIPL/pTYB1-Bax), purified; labeled with IAG

[3] = target: T2, Bax wild type labeled with MTSL at cysteines 62 and 126 (human, UniProt Q07812 1-192, MTSL nitroxide spin label (R1) on the native cysteines 62 and 126); test: as above; conditions: both partners purified
T2 construct: Bax, human, full length; two native cysteines at positions 62 and 126; also called Bax_(WTR1); source: E. coli (BL21/RIPL/pTYB1-Bax), purified; labeled with MTSL

[4] = target: Bax_(C87(C62S, C126S)) labeled with maleimide Gd-DOTA (human) (UniProt Q07812); test: DEER (double electron-electron resonance, EPR); inactive Bax in buffer (aqueous solution) with 50% v/v glycerol-d8, flash frozen; Q-band 4-pulse DEER, NO-NO at 50 K, Gd-Gd at 10 K; one labeled variant per sample

Bax_(C87(C62S, C126S)) labeled with maleimide gem-diethyl nitroxide (MAG) (from UniProt Q07812 1-192) (natural protein)
fraction of dimeric protein in solution [1]: < 10%

B1: Bax_(C87(C62S, C126S)) labeled with maleimide Gd-DOTA (natural protein, human, UniProt Q07812 1-192, looked up)
chain: MDGSGEQPRGGGPTSSEQIMKTGALLLQGFIQDRAGRMGGEAPELALDPVPQDASTKKLSESLKRIGDELDSNMELQRMIAAVDTDCPREVFFRVAADMFSDGNFNWGRVVALFYFASKLVLKALSTKVPELIRTIMGWTLDFLRERLLGWIQDQGGWDGLLSYFGTPTWQTVTIFVAGVLTASLTIWKKMG
modifications: maleimide Gd-DOTA spin label on cysteine 87
notes: Bax, human, full length, single surface-exposed cysteine at position 87; also called Bax_(C87Gd); source: E. coli, purified in the same way as the wild type protein; labeled with maleimide Gd-DOTA
binding result [2]: binds
binding result [3]: binds
fraction of dimeric protein in solution [4]: < 10%
